Patent publication US20110237779A1

Biological target: human IgE (human) (UniProt P01854)
Test: phage ELISA, solution competition: Fab-phage incubated with serially diluted IgE, unbound phage captured on IgE-coated wells; IC50 used as affinity estimate

human IgE (human), sequence (P01854 other isoform, or with tags, fused parts or gaps): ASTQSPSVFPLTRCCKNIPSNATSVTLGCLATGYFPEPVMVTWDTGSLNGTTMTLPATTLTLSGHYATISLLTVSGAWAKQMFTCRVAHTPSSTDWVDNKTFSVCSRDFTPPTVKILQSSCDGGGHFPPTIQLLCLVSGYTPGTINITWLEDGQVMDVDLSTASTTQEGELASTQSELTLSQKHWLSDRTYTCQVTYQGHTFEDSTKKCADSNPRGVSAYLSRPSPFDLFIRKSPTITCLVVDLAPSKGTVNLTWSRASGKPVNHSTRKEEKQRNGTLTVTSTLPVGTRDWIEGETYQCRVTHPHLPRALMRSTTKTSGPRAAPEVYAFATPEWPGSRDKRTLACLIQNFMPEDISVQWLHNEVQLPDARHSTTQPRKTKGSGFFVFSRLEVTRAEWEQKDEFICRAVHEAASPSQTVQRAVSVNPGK

Mae11-based hypervariable region graft with S34K and W35L in CDR-H1 of the VH domain (Fab displayed on phage)
IC50: 4 nM
